We go through 3 proteins from doi:10.1101/2025.07.31.667833, “Coiled-coil-mediated phase separation of Spef1 for non-centrosomal microtubule organization and function” (bioRxiv, 2025).

This data set concerns the molecule itself. The data set is described as follows: SEC-MALS; ~1 mg/ml protein in 50 mM Tris-HCl pH 8.0, 500 mM NaCl, 1 mM EDTA, 1 mM DTT; WTC SEC column, 18-angle light scattering; oligomeric state (dimer or monomer).

B1: full-length wild-type Spef1 (mouse) (natural protein, UniProt Q99JL1 1-234, looked up)
chain: MESSVDEEALHQLYLWVDNIPLSRPKRNLSRDFSDGVLVAELIKFYFPKMVEMHNYVPANSLQQKLSNWGHLNRKVLNKLNFSVPDDVMRKIAQCSPGVVELVLIPLRQRLEERQRRQKLGVGSLQELAPQDSSGYMDMGLPQKVRGEGAPALGEQLREGRPLASRPPGYNQALQGDPSFVLQIAEKEQELLASQETVQVLQMKVKRLEHLLQLKNVRIDDLSRRLQQAERKQR
notes: Spef1 (sperm flagellar protein 1, CLAMP), mouse, full length; also called WT; CLAMP; source: E. coli BL21(DE3), purified (Ni2+-Sepharose, size-exclusion chromatography)
By stoichiometry N is commonly meant a count of units in the complex or per binding partner. B1: the “stoichiometry N” value worked out at 2.

B2: Spef1 K206A/R207A mutant (full-length) (natural protein, mouse, UniProt Q99JL1 1-234, looked up)
chain: MESSVDEEALHQLYLWVDNIPLSRPKRNLSRDFSDGVLVAELIKFYFPKMVEMHNYVPANSLQQKLSNWGHLNRKVLNKLNFSVPDDVMRKIAQCSPGVVELVLIPLRQRLEERQRRQKLGVGSLQELAPQDSSGYMDMGLPQKVRGEGAPALGEQLREGRPLASRPPGYNQALQGDPSFVLQIAEKEQELLASQETVQVLQMKVAALEHLLQLKNVRIDDLSRRLQQAERKQR
notes: Spef1, mouse, full length, with K206A and R207A on the coiled-coil surface; also called KR; charge-changing mutant; source: E. coli BL21(DE3), purified (Ni2+-Sepharose, size-exclusion chromatography)
As to B2, the “stoichiometry N” value was 2.

B3: Spef1 E186A/E188A/E190A mutant (full-length) (natural protein, mouse, UniProt Q99JL1 1-234, looked up)
chain: MESSVDEEALHQLYLWVDNIPLSRPKRNLSRDFSDGVLVAELIKFYFPKMVEMHNYVPANSLQQKLSNWGHLNRKVLNKLNFSVPDDVMRKIAQCSPGVVELVLIPLRQRLEERQRRQKLGVGSLQELAPQDSSGYMDMGLPQKVRGEGAPALGEQLREGRPLASRPPGYNQALQGDPSFVLQIAAKAQALLASQETVQVLQMKVKRLEHLLQLKNVRIDDLSRRLQQAERKQR
notes: Spef1, mouse, full length, with E186A, E188A and E190A on the coiled-coil surface; also called charge-changing mutant; source: E. coli BL21(DE3), purified (Ni2+-Sepharose, size-exclusion chromatography)
Regarding B3, the “stoichiometry N” value is 2.
